We go through 15 molecules from article PMC5934628.

Assay in all cases: EMSA
On the technique in general: A gel shift assay detects complexes by their altered migration in electrophoresis.

Data set [1] addresses T1, VAL1-B3 wt (C-terminal His6) (Arabidopsis thaliana, UniProt Q8W4L5 288-397).
T1 sequence: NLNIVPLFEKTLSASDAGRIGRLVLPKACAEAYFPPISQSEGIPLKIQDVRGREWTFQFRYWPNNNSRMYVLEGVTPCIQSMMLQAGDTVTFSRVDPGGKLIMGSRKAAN

Data set [2] addresses T1, VAL1-B3 wt (C-terminal His6). This is another data set of the same source.
A further data set addresses T2, VAL1-B3 N352A (Arabidopsis thaliana, UniProt Q8W4L5 288-397, N352A).
T2 sequence: T1 sequence with N65A

In data set [3] the target is T1, VAL1-B3 wt (C-terminal His6). The source holds these as a separate data set.
Another data set concerns the target T3, VAL1-B3 I307A (Arabidopsis thaliana, UniProt Q8W4L5 288-397, I307A).
T3 sequence: T1 sequence with I20A

The next data set addresses T4, VAL1-B3 R306A (Arabidopsis thaliana, UniProt Q8W4L5 288-397, R306A).
T4 sequence: T1 sequence with R19A

The next data set concerns the target T5, VAL1-B3 Q345R (Arabidopsis thaliana, UniProt Q8W4L5 288-397, Q345R).
T5 sequence: T1 sequence with Q58R

Changes are numbered by the printed parent chain. Like-named read-outs stand apart in the source and are kept apart here.

B1: 12/12SP_2 (dsDNA)
DNA 1: CGCTGCATGCCT
DNA 2: AGGCATGCAGCG
Take B1: in data set [1], the binding result is recorded as “binds”.

B2: 12/12_1A (dsDNA)
DNA 1: CGGAGCATGGCT
DNA 2: AGCCATGCTCCG
On to B2, for which, in data set [2], the binding result is “no binding”.

B3: 12/12_2T (dsDNA)
DNA 1: CGGTTCATGGCT
DNA 2: AGCCATGAACCG
For B3, the binding result in data set [2] is “no binding”.

B4: 12/12_1C (dsDNA)
DNA 1: CGGCGCATGGCT
DNA 2: AGCCATGCGCCG
As to B4, the binding result in data set [2] is “no binding”.

B5: 12/12SP (dsDNA)
DNA 1: CGGTGCATGGCT
DNA 2: AGCCATGCACCG
One may read the Kd as the concentration at which binding is half-saturated. For the molecule B5, the binding result with VAL1-B3 N352A is reported as “binds”; in the data set with VAL1-B3 I307A it was “binds”; with VAL1-B3 R306A, “no binding”; in the data set with VAL1-B3 Q345R, “binds”. Further, the equilibrium dissociation constant (Kd) in data set [3] is around 3 µM.

B6: 12/12_5C (dsDNA)
DNA 1: CGGTGCACGGCT
DNA 2: AGCCGTGCACCG
As to B6, the binding result in data set [2] is on record as “no binding”.

B7: 12/12_2A (dsDNA)
DNA 1: CGGTACATGGCT
DNA 2: AGCCATGTACCG
As to B7, the binding result in data set [2] is recorded as “no binding”.

B8: 12/12_6C (dsDNA)
DNA 1: CGGTGCATCGCT
DNA 2: AGCGATGCACCG
Consider B8, for which, in data set [2], the binding result is “no binding”.

B9: 12/12_3T (dsDNA)
DNA 1: CGGTGTATGGCT
DNA 2: AGCCATACACCG
Consider B9, for which, in data set [2], the binding result is listed as “no binding”.

B10: 12/12_5A (dsDNA)
DNA 1: CGGTGCAAGGCT
DNA 2: AGCCTTGCACCG
With B10, in data set [2], the binding result was “no binding”.

B11: 12/12_6A (dsDNA)
DNA 1: CGGTGCATAGCT
DNA 2: AGCTATGCACCG
As for B11, the binding result in data set [2] is “no binding”.

B12: 12/12_3A (dsDNA)
DNA 1: CGGTGAATGGCT
DNA 2: AGCCATTCACCG
On to B12, for which the binding result in data set [2] is on record as “no binding”.

B13: 12/12_2C (dsDNA)
DNA 1: CGGTCCATGGCT
DNA 2: AGCCATGGACCG
Turning to B13, the binding result in data set [2] is reported as “no binding”.

B14: 12/12_6T (dsDNA)
DNA 1: CGGTGCATTGCT
DNA 2: AGCAATGCACCG
For B14, the binding result in data set [2] is given as “no binding”.

B15: 12/12_4T (dsDNA)
DNA 1: CGGTGCTTGGCT
DNA 2: AGCCAAGCACCG
Turning to B15, the binding result in data set [2] is listed as “no binding”.
